Results taken from patent publication US20040006777A1, “Human lymphoid protein tyrosine phosphatases” (HSC Research and Development Limited Partnership, priority 1998, published 2004).
Positions count from the first letter of the chain named. “Also recorded” adds a separate entry of the source.

T1: Lyp1 (Homo sapiens, UniProt Q9Y2R2)
T1 construct: made in house; host or cells: COS cells (transient transfection, pcDNA3); anti-T7 immunoprecipitate
T1 sequence (Q9Y2R2 1-807): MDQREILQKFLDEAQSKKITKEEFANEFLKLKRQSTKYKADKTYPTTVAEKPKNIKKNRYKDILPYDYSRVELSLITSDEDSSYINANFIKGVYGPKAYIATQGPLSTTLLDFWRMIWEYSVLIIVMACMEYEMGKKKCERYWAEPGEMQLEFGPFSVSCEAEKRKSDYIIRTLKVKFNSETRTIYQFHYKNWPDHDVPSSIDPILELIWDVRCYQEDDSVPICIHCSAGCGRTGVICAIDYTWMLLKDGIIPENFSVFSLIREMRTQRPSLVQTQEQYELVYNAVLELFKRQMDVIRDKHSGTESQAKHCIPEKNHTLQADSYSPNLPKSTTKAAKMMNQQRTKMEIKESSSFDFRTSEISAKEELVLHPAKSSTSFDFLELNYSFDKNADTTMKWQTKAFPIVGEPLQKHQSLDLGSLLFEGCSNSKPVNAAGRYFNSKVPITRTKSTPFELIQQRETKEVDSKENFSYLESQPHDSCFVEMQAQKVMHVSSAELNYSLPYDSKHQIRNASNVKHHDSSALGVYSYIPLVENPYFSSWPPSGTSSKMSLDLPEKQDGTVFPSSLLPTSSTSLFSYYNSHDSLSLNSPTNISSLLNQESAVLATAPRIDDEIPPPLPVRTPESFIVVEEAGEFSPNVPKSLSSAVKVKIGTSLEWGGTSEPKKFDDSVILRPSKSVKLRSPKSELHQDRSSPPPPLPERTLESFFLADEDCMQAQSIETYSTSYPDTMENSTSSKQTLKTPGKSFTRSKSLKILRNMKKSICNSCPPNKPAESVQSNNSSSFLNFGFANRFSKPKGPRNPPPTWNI

B1: Lyp1: human intracellular 105 kDa lymphoid protein tyrosine phosphatase, 808 amino acids, Sequence ID NO:2 (Table 2) (protein, listed as Homo sapiens)
chain: MDQREILQKFLDEAQSKKITKEEFANEFLKLKRQSTKYKADKTYPTTVAENAKNIKKNRYKDILPYDYSRVELSLITSDEDSSYINANFIKGVYGPKAYIATQGPLSTTLLDFWRMIWEYSVLIIVMACMEYEMGKKKCERYWAEPGEMQLEFGPFSVSCEAEKRKSDYIIRTLKVKFNSETRTIYQFHYKNWPDHDVPSSIDPILELIWDVRCYQEDDSVPICIHCSAGCGRTGVICAIVDYTWMLLKDGIIPENFSVFSLIREMRTQRPSLVQTQEQYELVYNAVLELFKRQMDVIRDKHSGTESQAKHCIPEKNHTLQADSYSPNLPKSTTKAAKMMNQQRTKMEIKESSSFDFRTSEISAKEELVLHPAKSSTSFDFLELNYSFDKNADTTMKWQTKAFPIVGEPLQKHQSLDLGSLLFEGCSNSKPVNAAGRYFNSKVPITRTKSTPFELIQQRETKEVDSKENFSYLESQPHDSCFVEMQAQKVMHVSSAELNYSLPYDSKHQIRNASNVKHHDSSALGVYSYIPLVENPYFSSWPPSGTSSKMSLDLPEKQDGTVFPSSLLPTSSTSLFSYYNSHSSLSLNSPTNISSLLNQESAVLATAPRIDDEIPPPLPVRTPESFIVVEEAGEFSPNVPKSLSSAVKVKIGTSLEWGGTSEPKKFDDSVILRPSKSVKLRSPKSELHQDRSSPPPPLPERTLESFFLADEDCMQAQSIETYSTSYPDTMENSTSSKQTLKTPGKSFTRSKSLKILRNMKKSICNSCPPNKPAESVQSNNSSSFLNFGFANRFSKPKGPRNPPPTWNI
B2: Lyp-N: catalytically inactive form of Lyp1 where Cysteine 227 is replaced by Serine (protein, UniProt Q9Y2R2 1-807, looked up, variant C227S)
Tyrosine-protein phosphatase …: T1 sequence (Q9Y2R2 1-807) with C227S

Assays:
Ick = test: Co-transfection of Lyp1 and src family kinases; type: cell-based; conditions: Lyp1 with src family kinases
Lyp1 = biological target: T1, Lyp1; test: In vitro phosphatase assay with 33P labelled Raytide peptide and Lyp immunoprecipitates; type: biochemical; conditions: Lyp immunoprecipitates from transfected COS cells compared to control immunoprecipitates from untransfected cells
Method: Anti-Lyp immunoprecipitates from untransfected and pcDNA3-Lyp1 transfected cells were prepared in pervanadate free lysis buffer and incubated with ^33P labelled substrate Raytide. At the indicated time points reactions were stopped by the addition of charcoal and the free ^33P released from the peptide and now present in the supernatant measured by liquid scintillation counting.
Raytide peptide was ^33P labelled on tyrosine residues in vitro using the tyrosine kinase p60src and purified on phosphocellulose paper. Release of ^33P over time was measured in the phosphatase assay and compared to controls from untransfected cells.
Specifically, the synthetic peptide Raytide was phosphorylated according to the method described by Guan et al., (1994)(54), on tyrosine by p60src (Oncogene Science) as follows: 10 μg Raytide in 50 mM Hepes pH 7.5, 10 mM MgCl2, 0.067% mercaptoethanol, 0.05 mM ATP was incubated with 300 μCiγ^33P ATP per ml and 2 μg p60src in a final volume of 30 μl. The reaction was allowed to proceed for 30 minutes at 30° C. and was stopped by the addition of […] 10% phosphoric acid.
The sample was spotted onto two 1×1 cm sheets of P81 phophocellulose paper and extensively washed with 0.5% phosphoric acid. […]
The phosphorylated substrate was used in the phosphatase assay as described by Stueli et al (1989)(54). […] After centrifugation the free ^33P in the supernatant was measured.

Fyn = test: Co-transfection of Lyp1 and kinase cDNA, kinase immunoprecipitation, anti-phosphotyrosine Western blot; type: cell-based; conditions: COS-7 and 293-T cells
Method: (§1) Western blotting was performed with anti-phosphotyrosine antibodies and chemiluminescent detection reagents. […] Syk was unaffected by Lyp1 (C).
(§2) cDNA for the phosphatase Lyp1 and the indicated kinase, in the eucaryotic expression vector pcDNA3, were transiently transfected into either the COS-7 monkey epithelial cell line (A) or the 293T human epithelial cell line as indicated. 48 hours after transfection, cells were harvested, lysates made in 1 & NP-40 lysis buffer and immunoprecipitations performed with antibodies to the transfected kinase. Immunoprecipitates were washed, boiled in SDS sample buffer and electrophoresed on SDS-PAGE. After electro-transfer to nitrocellulose membrane, Western blotting was performed with anti-phosphotyrosine antibodies and chemiluminescent detection reagents. […] Lyp1 could also down-regulate Zap-70 after its activation by Fyn in 293-T cells (B, lanes 3 and 4). The closely related Zap family kinase Syk was also unaffected by Lyp1 (C).

Zap-70 = test: as above; type: cell-based
Method: as §1, §2

Cbl = test: Lyp1 transfection into COS-7 cells, Cbl immunoprecipitation, anti-phosphotyrosine blot; type: cell-based, monkey; conditions: Lyp1 transfected COS-7 cells, endogenous Cbl
Method: (A) Lyp immunoprecipitates from thymocytes (80×10^6 cells) stimulated with anti-CD3 were blotted with antiphsophotyrosine. A single phosphorylated band of 116 kD was detected co-immunoprecipitating with Lyp. Lyp protein loading was quantitated by anti-Lyp western blot after stripping. […] (C) Lyp1 was transfected into COS-7 cells and Cbl immunoprecipitates prepared from these and untransfected cells. Western blotting was performed with Lyp antibodies. The position of Lyp is indicted by an arrow. Cbl immunoprecipitates were also prepared and blotted with anti-phosphotyrosine (D), and then anti-Cbl after stripping.
One of the earliest events following TCR stimulation of T cells is the induction of tyrosine phosphorylation. In order to determine whether Lyp played a role in TCR signalling, human thymocytes were stimulated with anti-CD3 for various periods of time, Lyp immunoprecipitated and blotted with anti-phosphotyrosine. […] Once activated, the phosphorylation level of this protein remained constant over a period of 20 minutes. The 116 kD phosphorylated protein was identified by western blotting of Lyp immunoprecipitates from CD3 stimulated thymocytes with antibodies to various candidate proteins. […]

Syk = test: Co-transfection of Lyp1 or Lyp-N and kinase cDNA, kinase immunoprecipitation, anti-phosphotyrosine Western blot; type: cell-based; conditions: co-transfection with Syk
Method: as §1
(§3) Western blotting was performed with anti-phosphotyrosine antibodies and chemiluminescent detection reagents. Lyp1 reduced the tyrosine phosphorylation of Jak3 (C) while having little effect on Syk (D). No effect was seen when Syk was co-transfected with Lyp-N (D).
as §2, with “(C). […]” for “(C).”

Jak3 = test: Co-transfection of Lyp1 and kinase cDNA in COS-7, kinase immunoprecipitation, anti-phosphotyrosine Western blot; type: cell-based; conditions: COS-7 cells
Method: as §3
cDNA for the phosphatase Lyp1 and the indicated kinase, in the eucaryotic expression vector pcDNA3, were transiently transfected into the COS-7 monkey epithelial cell line. 48 hours after transfection, cells were harvested, lysates made in 1% NP-40 lysis buffer and immunoprecipitations performed with antibodies to the transfected kinase. Immunoprecipitates were washed, boiled in SDS sample buffer and electrophoesed on SDS-PAGE. After electro-transfer to nitrocellulose membrane, Western blotting was performed with anti-phosphotyrosine antibodies and chemiluminescent detection reagents.

Lyn kinase = test: Effect of Lyp1 on Lyn kinase activity; type: cell-based

33P release from the substrate Raytide (Lyp1)	Molecule	Ick dephosphorylation (Ick)	Fyn tyrosine phosphorylation (Fyn)	Zap-70 phosphorylation after its activation by Fyn (Zap-70; 293-T cells)	Zap-70 tyrosine phosphorylation (Zap-70; COS-7 and 293-T cells)	basal level of Cbl tyrosine phosphorylation (Cbl)	Syk tyrosine phosphorylation (Syk)	Jak3 tyrosine phosphorylation (Jak3)	Lyn kinase activity (Lyn kinase)
seven fold increase	B1	no dephosphorylation	unaffected; also recorded: no dephosphorylation	down-regulate	reduction; also recorded: complete dephosphorylation	reduce significantly	unaffected; also recorded: little effect; also recorded: no Syk dephosphorylation	clearly reduced; also recorded: complete dephosphorylation	strongly down-regulates
	B2						No effect		
